In article PMC5820281:

How the values were obtained:
[1] = molecular target: protein A/G (Ultralink protein A/G beads); assay: luciferase pull-down (protein A/G beads, luciferase-tagged Fc-IgG); conditions: read off a plot
[2] = molecular target: GST-Ro52-Δ2 (C-terminal fragment of Ro52/TRIM21 fused to glutathione S-transferase) (UniProt P19474); assay: luciferase pull-down (bead-immobilized GST fusion protein, luciferase-tagged Fc-IgG); conditions: read off a plot
[3] = molecular target: Renilla luciferase-IgG1 Fc fusion protein (Fc region of IgG1, amino acids 233–449); assay: as above; conditions: parent: est. 240000; read off a plot

Sequence of UniProt P19474 (P19474 277-475, stated change not applied): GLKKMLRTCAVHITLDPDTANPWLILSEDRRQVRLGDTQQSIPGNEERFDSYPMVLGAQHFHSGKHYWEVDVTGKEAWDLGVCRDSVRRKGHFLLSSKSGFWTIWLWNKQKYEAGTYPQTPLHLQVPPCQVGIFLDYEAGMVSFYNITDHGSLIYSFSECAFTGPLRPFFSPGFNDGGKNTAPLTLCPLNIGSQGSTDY

Row | Substance | response [1] [LU] | response [2] [LU] | response [3] [LU]
1 | Renilla luciferase-IgG1 Fc fusion protein (Fc region of IgG1, amino acids 233–449) H435del; N436del; H437del | 3600 | 4200 | –
2 | GST-Ro52-Δ2 (C-terminal fragment of Ro52/TRIM21 fused to glutathione S-transferase) (from UniProt P19474) D355A | – | – | 3900
